From patent US10246503B2, “Method of improving the pharmacokinetic profile of a therapeutic polypeptide and the use thereof” (BEIJING ANXINHUAIDE BIOTECH. CO., LTD, priority 2012, dated 2019)
Like-named read-outs stand apart in the source and are kept apart here.

B1: GLP-1(A8G/G22E/R36S)-Fn8-COL18NC1-54 (ligand)
chain: HGEGTFTSDVSSYLEEQAAKEFIAWLVKGSGGGGSGGAVPPPTDLRFTNIGPDTMRVTWAPPPSIDLTNFLVRYSPVKNEEDVAELSISPSDNAVVLTNLLPGTEYVVSVSSVYEQHESTPLRGRQKTGGGGGSGGGGSTASSASTGGPSGGGGSGGGGSAPSSGSTSGGTAAGGGGSGGGGSGASSGVRLWATRQAMLGQVHEVPEGWLIFVAEQEELYVRVQNGFRKVQLEARTPLPRG
B2: GLP-1(A8G/G22E/R36S)-Fn8-COL18NC1-20 (ligand)
chain: HGEGTFTSDVSSYLEEQAAKEFIAWLVKGSGGGGSGGAVPPPTDLRFTNIGPDTMRVTWAPPPSIDLTNFLVRYSPVKNEEDVAELSISPSDNAVVLTNLLPGTEYVVSVSSVYEQHESTPLRGRQKTGGGGGSGGGGSGGGGSGGGGSGASSGVRLWATRQAMLGQVHEVPEGWLIFVAEQEELYVRVQNGFRKVQLEARTPLPRG
B3: GLP-1-Fn8-COL18NC1: fusion of GLP-1, Fn8 and COL18NC1; SEQ ID NO: 2; abbreviated NC1 in Table 5 (protein)
chain: HAEGTFTSDVSSYLEGQAAKEFIAWLVKGRGGGGSGGGGSAVPPPTDLRFTNIGPDTMRVTWAPPPSIDLTNFLVRYSPVKNEEDVAELSISPSDNAVVLTNLLPGTEYVVSVSSVYEQHESTPLRGRQKTGGGGSGGGASSGVRLWATRQAMLGQVHEVPEGWLIFVAEQEELYVRVQNGFRKVQLEARTPLPRG

How the values were obtained:
TNF-alpha = assay: cell-based or functional assay
[1] = in monkeys, literature [6]; cited from earlier work
[2] = analytical gel filtration (Superdex200), apparent molecular weight; format: physicochemical
From the text: In the fusion protein of GLP-1(A8G/G22E)-Fn8-COL18NC1 described in example 4, the flexible unstructured linker between Fn8 and COL18NC1 contains six residues (GGGSGG; SEQ ID NO:89). To generate the flexible un-structured linkers with different lengths, we have synthesized the genes GLP-1(A8G/G22E/R36S)-Fn8-COL18NC1-20, GLP-1(A8G/G22E/R36S)-Fn8-COL18NC1-30, GLP-1(A8G/G22E/R36S)-Fn8-COL18NC1-54 and GLP-1(A8G/G22E/R36S)-Fn8-COL18NC1-60. In these genes, the length of the flexible unstructured polypeptide linker between Fn8 and COL18NC1 contained 20, 30, 54 and 60 residues, respectively. The protein sequences of GLP-1(A8G/G22E/R36S)-Fn8-COL18NC1-20, GLP-1(A8G/G22E/R36S)-Fn8-COL18NC1-30, GLP-1(A8G/G22E/R36S)-Fn8-COL18NC1-54 and GLP-1(A8G/G22E/R36S)-Fn8-COL18NC1-60 are listed as SEQ ID NO:8-11. The synthetic genes of GLP-1(A8G/G22E/R36S)-Fn8-COL18NC1-20, GLP-1(A8G/G22E/R36S)-Fn8-COL18NC1-30, GLP-1(A8G/G22E/R36S)-Fn8-COL18NC1-54 and GLP-1(A8G/G22E/R36S)-Fn8-COL18NC1-60 were grafted to the pET29b by NdeI and XhoI for protein expressions. The expression and purification of these fusion proteins were carried out using similar protocols described in example 3. To estimate the hydrodynamic radius and/or the Rg of the fusion proteins, the purified proteins were loaded on an analytical gel filtration column Superdex200 (GE Healthcare).
Moreover, the flexible unstructured linker between the therapeutic polypeptide and the scaffold protein may adjust the hydrodynamic radius and/or the Rg of the fusion molecule in a tunable manner.
The apparent molecular weights of the fusion proteins were estimated by use of an analytical gel filtration column Superdex-200 (GE Healthcare) mounted on the AKTA FPLC system (GE Healthcare). The purified fusion proteins GLP-1-Fn8, GLP-1-Fn8-COL18NC1, GLP-1(A8G/G22E/R36G)-Fn8-p246-COL18NC1 were loaded on the Superdex200 column. GLP-1-Fn8 is a fusion protein of GLP-1 and Fn8 and contains the first 144 amino acid residues of the fusion protein GLP-1-Fn8-COL18NC1 (SEQ ID NO:2). […] The genuine molecular weights for the fusion proteins GLP-1-Fn8 monomer, GLP-1-Fn8-COL18NC1 trimer, and GLP-1(A8G/G22E/R36G)-Fn8-p246-COL18NC1 trimer were ˜15 Kd, 65 Kd and 123Kd, respectively.

[3] = target: human GLP-1 receptor (GLP-1R) (human, UniProt P43220 24-463); assay: cell-based or functional assay
[4] = pharmacokinetics in Sprague-Dawley rats, sandwich ELISA (Example 6); format: in vivo; settings: Sprague-Dawley rat, intraperitoneal, 0.66/0.72/0.75/0.78 mg/kg respectively
Protocol: To evaluate the pharmacokinetics profiles for the GLP-1 containing fusion proteins generated using the method of the invention, we purified GLP-1(A8G/G22E/R36S)-Fn8-COL18NC1, GLP-1(A8G/G22E/R36S)-Fn8-COL18NC1-20, GLP-1(A8G/G22E/R36S)-Fn8-COL18NC1-30, GLP-1(A8G/G22E/R36S)-Fn8-COL18NC1-54 in PBS buffer, pH 7.2. These fusion proteins were administered on Sprague-Dawley (SD) rats by intraperitoneal injections at the doses of 0.66 mg/kg, 0.72 mg/kg, 0.75 mg/kg, 0.78 mg/kg animal respectively. Blood samples were taken at various time points after injections such as 0-min, 30-min, 1-hour, 2-hour, 4-hour, 8-hour, 24-hour, 48-hour, 3-day, 4-day, 5-day. 7-day, 10-day. The serum samples were centrifuged and kept at −80° C. freezer.
(§1) The GLP-1 concentrations within the serum samples were examined by use of the sandwich ELISA method. The rabbit polyclonal antibody against human Fibronectin at the concentration of 3 ug/ml (Ab299, Abcam company) was coated on ELISA plate for 1 hour at room temperature. Then the plate was washed by PBST buffer three times and the wells were blocked by PBS with 10% FBS for 1 hour at room temperature. The plate was washed three times before the serum samples containing GLP-1 fusion proteins were added. The serum samples could be diluted to 20-10000 folds before use. The ELISA plate was incubated with the serum samples at room temperature for 1 hour and then washed by PBST buffer five times. Then mouse monoclonal against human GLP-1 peptide antibody (sc57510, Santa Cruz Biotechology) at the concentration of 1 ug/ml in PBST buffer was added to the wells. The plate was washed extensively after incubation of 1 hour at room temperature. The secondary antibody, […] HRP conjugated antibody (Beijing ZSGB-Bio company, ZB 5301), was added into the wells and the color was developed using TMB (3,3′,5,5′-tetramethylbenzidine, BD Biosciences, Cat 555214). The plate reader (Bio-Rad microplate reader Model 680) was utilized to obtain the OD450 readings. This method has been calibrated using purified proteins first.
The pharmacokinetics parameters were obtained by using the WinNonlin software (Table 3).

[5] = pharmacokinetics in SD rats, sandwich ELISA (Example 15); format: in vivo, SD (Sprague-Dawley) rats; settings: SD rats, intraperitoneal, 5 nmol/kg
Protocol: To evaluate the pharmacokinetics profiles for the GLP-1 containing fusion proteins generated using the method of the invention, we purified the recombinant fusion proteins of GLP-1-Fn8-COL18NC1, GLP1(A8G/G22E/R36G)-Fn8-p246-COL18NC1 and GLP1(A8G/G22E/R36G)-Fn8-p285-COL18NC1 in PBS buffer, pH 7.2. These fusion proteins were administered into SD (Sprague-Dawley) rats by intraperitoneal injections at the dose of 5 nmol/kg for animals, respectively. Blood samples were taken at various time points after injections such as 0-min, 30-min, 1-hour, 2-hour, 4-hour, 6-hour, 8-hour, 24-hour, 48-hour, 3-day, 4-day, 5-day, 6-day and 7-day. The serum samples were centrifuged and kept at −80° C. freezer.
as §1, with “within the samples were” for “within the serum samples were”, “Santa Cruz Biotechnology) at the” for “Santa Cruz Biotechology) at the”
The pharmacokinetics parameters were obtained by using the WinNonlin software (Table 5).

ED50, block of the apoptosis of L-929 mouse fibroblast cells induced by TNF-alpha (0.25 ng/mL) in the presence of actinomycin D (TNF-alpha) [ng/mL]	EC50 (nM) measured by cAMP assay [3] [nM]	Molecule	half life [1] [h]	apparent molecular weight [2]	AUC(0-t) [4] [ng·h/mL]	AUCinf [4] [ng·h/mL]	CL [4] [mL/min/kg]	Cmax [4] [ng/mL]	T½ [4] [h]	V [4] [L/kg]	half life [5] [h]
5		TNFR2-Fc fusion protein (R&D Systems)									
		GLP-1-Fc fusion protein: GLP-1-Fc fusion protein of literature reference [6] (LY2189265)	~51								
	0.5	B1		~200 Kd	86640	86670	0.451	2640	9.10	0.35086	
	1.4	B2		larger apparent molecular weight than their genuine molecular weight	36210	37240	0.9505	2260	6.45	0.53016	
		B3		~100 Kd							5.3
